In publication PMC9481563, “Structural insights into the pSer/pThr dependent regulation of the SHP2 tyrosine phosphatase in insulin and CD28 signaling” (Nature Communications, 2022):

Molecular target: PTP1B catalytic domain, inactive C215S mutant (1-229 as printed) (human) (UniProt P18031)
Assay: fluorescence polarisation; competitive titration: labelled CF-ppIRS1 and protein both fixed (50-80% saturation), unlabelled competitor peptide varied; triplicates; Kd from cubic fit

PTP1B catalytic domain, inactive C215S mutant (1-229 as printed) (human), sequence (P18031 1-229 C215S): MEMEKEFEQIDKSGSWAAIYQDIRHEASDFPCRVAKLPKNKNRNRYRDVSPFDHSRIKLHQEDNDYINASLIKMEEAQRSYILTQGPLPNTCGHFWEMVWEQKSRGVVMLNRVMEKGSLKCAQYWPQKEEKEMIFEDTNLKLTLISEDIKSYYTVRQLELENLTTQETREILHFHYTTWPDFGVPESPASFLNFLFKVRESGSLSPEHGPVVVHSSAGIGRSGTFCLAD

fold increase of binding over p0CD28 [fold] | fold increase of binding over p0IRS1 [fold] | Substance
2 | – | ppCD28, CD28 peptide dually phosphorylated (pY191 + pT195)
– | 19 | ppIRS1, IRS1 peptide dually phosphorylated (pY632 + pS636)
